Experimental data taken from the Human Domainome abundance scans (Beltran et al. 2025).
± gives the uncertainty stated by the source.

B1: Cullin-9, residues 2234 to 2275; numbered along this chain, Q8IWT3 (parent)
chain: KRCPSCQAPIEKNEGCLHMTCAKCNHGFCWRCLKSWKPNHKD
B2: F-BAR and double SH3 domains protein 1, residues 467 to 528; numbered along this chain, Q86WN1 (parent)
chain: RALPCPAHVVFRYQAGREDELTITEGEWLEVIEEGDADEWVKARNQHGEVGFVPERYLNFPD

Variants of: B1
Test: abundance fitness (aPCA) (normalised: wild type 0, dead -1); higher = more abundant; growth selection in yeast, the domain comes from the species named
Conditions: Homo sapiens

Abundance fitness of substitutions, site by site:
K1: F -0.735 ± 0.39 | S -0.756 ± 0.15 | R -0.948 ± 0.12 | H -0.436 ± 0.29 | G -0.815 ± 0.097 | I 0.164 ± 0.34 | V -0.46 ± 0.11 | C -1.12 ± 0.26 | T -0.377 ± 0.19 | Y 0.038 ± 0.38 | M -0.162 ± 0.17 | W -1.42 ± 0.38 | E -0.586 ± 0.11 | L -0.493 ± 0.15 | Q -0.691 ± 0.4
R2: C 0.07 ± 0.18 | A 0.084 ± 0.096 | E 0.175 ± 0.1

Variants of: B2
Test: as above
Conditions: Homo sapiens

Abundance fitness of substitutions, site by site:
G48: H -0.34 ± 0.16 | Y -0.494 ± 0.15 | K -0.328 ± 0.11 | V -0.741 ± 0.092 | S -0.132 ± 0.064 | I -0.787 ± 0.22 | A -0.39 ± 0.084 | L -0.423 ± 0.059 | M -0.296 ± 0.076 | Q -0.574 ± 0.19 | D -0.217 ± 0.067 | P -0.623 ± 0.1 | W -0.435 ± 0.091 | R -0.376 ± 0.073 | E -0.169 ± 0.073 | F -0.293 ± 0.14
Q46: W -0.228 ± 0.093 | S -0.04 ± 0.061 | F -0.207 ± 0.1 | E -0.052 ± 0.056 | R -0.028 ± 0.047 | N -0.027 ± 0.17 | P -0.334 ± 0.074 | L -0.056 ± 0.045 | M -0.088 ± 0.072 | H -0.163 ± 0.15 | K 0.074 ± 0.062 | V -0.088 ± 0.044 | D -0.198 ± 0.076 | Y -0.114 ± 0.092 | C -0.018 ± 0.099 | A 0.036 ± 0.057 | T -0.01 ± 0.062 | I -0.142 ± 0.1 | G -0.082 ± 0.061
P61: M -0.088 ± 0.076 | D -0.007 ± 0.099 | V 0.001 ± 0.073 | S 0.091 ± 0.052 | Q 0.081 ± 0.088 | A -0.03 ± 0.065 | N -0.042 ± 0.096 | L 0.004 ± 0.043 | G 0.042 ± 0.067 | H -0.249 ± 0.086 | I 0.091 ± 0.12 | Y -0.303 ± 0.17 | E -0.111 ± 0.1 | K 0.026 ± 0.11 | W -0.174 ± 0.058 | R -0.09 ± 0.039
L58: Q -0.819 ± 0.14 | A -0.743 ± 0.085 | I -0.088 ± 0.08 | K -1.01 ± 0.29 | E -0.951 ± 0.18 | C -0.499 ± 0.078 | P -0.946 ± 0.18 | F -0.902 ± 0.14 | N -1.02 ± 0.46 | H -1.12 ± 0.32 | V -0.267 ± 0.062 | R -0.859 ± 0.061 | W -0.829 ± 0.07 | S -0.65 ± 0.059 | T -0.602 ± 0.084 | M -0.574 ± 0.11 | G -0.73 ± 0.063
E55: H -0.133 ± 0.1 | L 0.059 ± 0.04 | Y -0.196 ± 0.081 | C -0.02 ± 0.061 | T 0.026 ± 0.054 | W -0.151 ± 0.056 | K -0.02 ± 0.079 | F -0.165 ± 0.058 | M 0.035 ± 0.049 | G -0.132 ± 0.055 | P -0.123 ± 0.088 | N -0.055 ± 0.091 | S -0.069 ± 0.05 | A -0.042 ± 0.058 | Q -0.138 ± 0.069 | V 0.054 ± 0.05 | D -0.057 ± 0.11 | R 0.038 ± 0.042
N59: P -0.977 ± 0.16 | W -0.242 ± 0.053 | I -0.079 ± 0.075 | K -0.005 ± 0.071 | F -0.091 ± 0.075 | E 0.028 ± 0.06 | A 0.054 ± 0.06 | M -0.117 ± 0.057 | L -0.159 ± 0.035 | Q 0.018 ± 0.053 | H 0.003 ± 0.086 | C -0.036 ± 0.093 | S -0.036 ± 0.042 | R 0.066 ± 0.043 | T 0.006 ± 0.058 | V -0.078 ± 0.046 | G -0.096 ± 0.054
E49: Y -0.427 ± 0.14 | H -0.015 ± 0.12 | Q 0.101 ± 0.073 | I 0.1 ± 0.095 | F -0.088 ± 0.09 | C -0.029 ± 0.095 | D -0.118 ± 0.11 | L -0.13 ± 0.047 | R -0.085 ± 0.058 | S -0.022 ± 0.052 | P -1.05 ± 0.19 | V -0.139 ± 0.066 | K -0.026 ± 0.096 | T -0.075 ± 0.07 | A -0.131 ± 0.093
F60: E -0.561 ± 0.1 | L -0.213 ± 0.041 | P -0.466 ± 0.18 | W -0.064 ± 0.051 | Q -0.778 ± 0.11 | T -0.499 ± 0.091 | A -0.535 ± 0.086 | C -0.275 ± 0.065 | G -0.555 ± 0.063 | N -0.531 ± 0.16 | V -0.157 ± 0.05 | M -0.223 ± 0.079 | R -0.329 ± 0.047 | D -0.768 ± 0.33 | K -0.533 ± 0.1 | I -0.154 ± 0.069
D62: T 0.028 ± 0.079 | M -0.181 ± 0.18 | Y -0.17 ± 0.079 | H 0.011 ± 0.13 | I -0.435 ± 0.12 | P -0.235 ± 0.082 | W -0.356 ± 0.084 | S 0 ± 0.056 | N -0.201 ± 0.074 | A 0.012 ± 0.075 | R -0.309 ± 0.15 | E 0.114 ± 0.1 | L -0.151 ± 0.053 | C 0.111 ± 0.14 | F -0.399 ± 0.11 | K -0.148 ± 0.15 | Q -0.276 ± 0.17 | G -0.057 ± 0.089
F52: E -0.322 ± 0.058 | A -0.249 ± 0.055 | K 0.048 ± 0.072 | G -0.491 ± 0.055 | L 0.104 ± 0.04 | C -0.189 ± 0.088 | M -0.019 ± 0.061 | W 0.033 ± 0.062 | Y 0.093 ± 0.085 | D -0.431 ± 0.1 | H -0.199 ± 0.093 | R -0.063 ± 0.044 | T -0.284 ± 0.079 | S -0.059 ± 0.058 | V -0.127 ± 0.039 | I -0.152 ± 0.12 | N -0.175 ± 0.093 | Q -0.259 ± 0.071
H47: K 0.048 ± 0.07 | M -0.039 ± 0.052 | L 0.01 ± 0.041 | E -0.171 ± 0.078 | G 0.051 ± 0.048 | D -0.006 ± 0.081 | T -0.172 ± 0.065 | W -0.176 ± 0.08 | P -0.585 ± 0.11 | Q -0.026 ± 0.061 | Y -0.215 ± 0.11 | R 0.092 ± 0.048 | A 0.164 ± 0.06 | I -0.176 ± 0.14 | F -0.246 ± 0.12 | C -0.045 ± 0.13 | V 0.004 ± 0.053
N45: L -0.737 ± 0.086 | S -0.571 ± 0.11 | R -0.941 ± 0.12 | V -0.949 ± 0.16 | Q -0.884 ± 0.22 | T -0.402 ± 0.11 | G -0.576 ± 0.098 | H -0.166 ± 0.17 | E -1.08 ± 0.37 | F -0.869 ± 0.17 | A -0.567 ± 0.1 | Y -0.377 ± 0.18 | M -0.891 ± 0.24 | W -1.16 ± 0.22 | P -0.301 ± 0.15 | K -0.447 ± 0.1 | I -0.212 ± 0.14 | D -0.571 ± 0.2 | C -0.994 ± 0.28
R56: E 0.053 ± 0.081 | D -0.074 ± 0.11 | K 0.033 ± 0.057 | H -0.118 ± 0.1 | F -0.164 ± 0.072 | S 0.052 ± 0.043 | P -0.129 ± 0.062 | M -0.126 ± 0.055 | L -0.117 ± 0.037 | T 0.005 ± 0.068 | W -0.263 ± 0.12 | C -0.012 ± 0.12 | G -0.125 ± 0.061 | Y -0.174 ± 0.078 | Q 0.012 ± 0.053 | V -0.096 ± 0.057 | A 0.035 ± 0.06
Y57: F -0.006 ± 0.06 | P -0.613 ± 0.1 | D -0.161 ± 0.092 | H 0.208 ± 0.086 | N 0.109 ± 0.083 | W -0.281 ± 0.11 | L -0.023 ± 0.037 | M -0.041 ± 0.063 | K -0.231 ± 0.081 | E -0.595 ± 0.11 | T 0.07 ± 0.052 | I -0.309 ± 0.09 | Q -0.292 ± 0.089 | V 0.103 ± 0.039 | G -0.44 ± 0.065 | S 0.123 ± 0.058 | A 0.102 ± 0.048 | R -0.373 ± 0.071
V50: K -0.187 ± 0.075 | A -0.211 ± 0.065 | Q -0.093 ± 0.061 | R -0.607 ± 0.071 | L -0.285 ± 0.052 | I -0.235 ± 0.12 | E 0.016 ± 0.066 | H -0.554 ± 0.12 | C -0.191 ± 0.17 | D -0.599 ± 0.25 | F -0.29 ± 0.09 | S -0.148 ± 0.068 | T -0.11 ± 0.078 | N -0.737 ± 0.25 | P -0.833 ± 0.14 | M -0.108 ± 0.07
V53: R -0.662 ± 0.065 | C -0.262 ± 0.081 | S -0.981 ± 0.097 | Q -0.624 ± 0.1 | H -0.675 ± 0.24 | D -0.745 ± 0.12 | E -0.934 ± 0.16 | T -0.868 ± 0.13 | I -0.031 ± 0.085 | P -0.922 ± 0.18 | A -0.564 ± 0.081 | M -0.673 ± 0.11 | Y -0.466 ± 0.084 | F -0.823 ± 0.17 | G -0.624 ± 0.078 | N -0.829 ± 0.24 | W -1.03 ± 0.16
G51: D -0.706 ± 0.19 | N -1.17 ± 0.44 | A -0.691 ± 0.1 | M -0.843 ± 0.12 | L -0.273 ± 0.057 | E -0.863 ± 0.18 | P -0.952 ± 0.16 | C -0.958 ± 0.15 | H -0.973 ± 0.38 | Y -0.736 ± 0.16 | W -0.954 ± 0.13 | F -0.669 ± 0.12 | V -0.857 ± 0.096 | T -0.698 ± 0.091 | K -0.42 ± 0.28 | Q -1.03 ± 0.24
R44: W -0.947 ± 0.19 | T -0.23 ± 0.081 | V -0.165 ± 0.042 | Q -0.23 ± 0.073 | S -0.253 ± 0.063 | P -0.673 ± 0.099 | Y -0.587 ± 0.13
P54: V -0.638 ± 0.09 | Q -0.117 ± 0.063 | R 0.012 ± 0.042 | C -0.001 ± 0.071 | G -0.299 ± 0.059 | N 0.198 ± 0.13 | Y -0.14 ± 0.087 | L -0.016 ± 0.04 | I -0.426 ± 0.15 | K -0.075 ± 0.1 | E -0.509 ± 0.11 | W -0.117 ± 0.063 | S -0.126 ± 0.059 | F -0.287 ± 0.075 | T -0.831 ± 0.11 | M -0.009 ± 0.053 | H -0.017 ± 0.077 | A -0.2 ± 0.073 | D -0.539 ± 0.16
